According to patent US20240052039A1:

Target: recombinant α4β1 integrin (R&D Systems) (UniProt P13612)
Experiment: ELISA, recombinant α4β1 immobilised; reference is the anti-VLA-4 scFv

fold ELISA signal against scFv: 10 times
Substance: Fab of Natalizumab
